Assay [1] concerns the target E17K GST-PH Domain (Homo sapiens (Human)) (UniProt P31749). The assay can be described thus: ELISA, biotinylated ligand on streptavidin plate, GST-PH Domain titrated, anti-GST detection.
For assay [2], the target named is T1, GFP-tagged E17K PH Domain protein (Homo sapiens (Human), UniProt P31749 1-124).
T1 construct: Cloned from pUNO-hAKT1 and mutated; also called GFP-E17K PHD; E17K mutant GFP-PH domain; not shown: GFP of the TOPO C-terminal GFP mammalian vector
T1 chain: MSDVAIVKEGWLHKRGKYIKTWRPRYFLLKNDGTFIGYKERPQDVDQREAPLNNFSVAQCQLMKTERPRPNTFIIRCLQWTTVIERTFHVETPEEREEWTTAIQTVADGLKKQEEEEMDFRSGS
Briefly: confocal imaging of HEK-293T cells expressing GFP-PH Domain.

The target in assay [3] is E17K GST-PH Domain (Homo sapiens (Human)) (UniProt P31749). Briefly: ELISA: biotinylated triligand candidate on streptavidin plate, GST-PH Domain titrated, anti-GST-HRP detection. (In general: ELISA stands for enzyme-linked immunosorbent assay.)
For assay [4], the target named is full length Akt1E17K (Homo sapiens (Human)) (UniProt P31749). The assay can be described thus: fluorescence polarization in solution, full-length Akt1 titrated. In general terms: Polarisation of emitted light reports the rotation of a fluorescent probe.
The target is the same in assay [5]. The assay can be described thus: fluorescence polarization KD values compared.
For assay [6], the target named is 6His-PEG5-WT 33mer Fragment (wildtype 33-mer epitope without alkyne click handle). The assay can be described thus: fluorescence polarization, in solution.
6His-PEG5-WT 33mer Fragment (wildtype 33-mer epitope without alkyne click handle), sequence (peptide, as listed by the source): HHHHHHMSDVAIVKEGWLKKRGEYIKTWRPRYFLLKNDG
Assay [7] addresses 6His-PEG5-Mut 33mer Fragment (E17K 33-mer epitope without alkyne click handle). Briefly: fluorescence polarization, in solution.
The target in assay [8] is full length Akt1E17K (Homo sapiens (Human)) (UniProt P31749). Briefly: fluorescence polarization, in solution.

Primed or numbered codes have the meaning given here. Where no end group is shown, it is not given here. [ ]: non-standard residue; d: D form. The star is where a group is joined. Biotin = O=C1N[C@H]2[C@H](CS[C@H]2CCCCC(=O)*)N1; Lys(N3) = [N-]=[N+]=NCCCC[C@H](N)C(=O)O; dPra = C#CC[C@@H](N)C(=O)O; PEG5″ = not defined here; PEG5′ = PEG5 linker

One may read the EC50 as the concentration giving half of the maximal effect. High values mean lower potency in that assay, low ones higher potency in that assay. By EC50 (read off the curve) is commonly meant the concentration giving half of the maximal effect. The term Kd denotes a measure of binding affinity in units of concentration. A low value points to tighter binding.

6His-PEG5-Mut 33mer Fragment (E17K 33-mer epitope without alkyne click handle), sequence (peptide, as listed by the source E17K E17K): as the sequence (peptide, as listed by the source) above, with E23K counted along it

B1: Biotin-PEG5-yleaf(SEQ ID NO: 43)-Pra anchor ligand (peptide)
peptide: {Biotin-PEG5′}-[dY][dL][dE][dA][dF]
modifications: not fully specified (C-terminus)
Take B1: the EC50 in assay [1] is 61 nM.

B2: PEG5-TAT-Cy5 (peptide)
peptide: [PEG5″]YGRKKRRQRR-Cy5
notes: Control without the yleaf anchor; also called blank of PEG5-TAT-Cy5; control with no anchor ligand peptide
B2: in assay [2], the binding result is reported as “no binding (tested: 50 nM)”.

B3: Biotin-PEG5-ivdae(SEQ ID NO: 78)-yleaf(SEQ ID NO: 43)-yksy(SEQ ID NO: 76) triligand (peptide)
peptide 1: [dI][dV][dD][dA][dE]
peptide 2: [Lys(N3)][dY][dL][dE][dA][dF][dPra]
peptide 3: [dY][dK][dS][dY]
modifications: not fully specified (N-terminus, C-terminus); also: triazole to a chain's N/C-terminus, triazole to a chain's N/C-terminus
As for B3, the EC50 in assay [1] is 45 nM.

B4: yleaf(SEQ ID NO: 43)-Tz-yksy(SEQ ID NO: 76) biligand, N-terminal PEG5-biotin (peptide)
peptide 1: [dY][dL][dE][dA][dF]
peptide 2: [dY][dK][dS][dY]
modifications: not fully specified (N-terminus, C-terminus, bridges); also: triazole to a chain's N/C-terminus
Regarding B4, the EC50 in assay [1] came to 19 nM.

B5: triligand candidate iryrn (iryrn-yleaf-yksy) (peptide)
peptide 1: [dI][dR][dY][dR][dN]
peptide 2: [Lys(N3)][dY][dL][dE][dA][dF][dPra]
peptide 3: [dY][dK][dS][dY]
modifications: not fully specified (N-terminus, C-terminus); also: triazole to a chain's N/C-terminus, triazole to a chain's N/C-terminus
The molecule B5 showed an EC50 (read off the curve) in assay [3] of 10 nM.

B6: triligand 9 (ivdae-yleaf-yksy, form used in fluorescence polarization) (peptide)
peptide 1: [dI][dV][dD][dA][dE]
peptide 2: [dY][dL][dE][dA][dF]
peptide 3: [dY][dK][dS][dY]
modifications: not fully specified (N-terminus, C-terminus); also: fluorescence polarization label, not described, triazole to a chain's N/C-terminus, triazole to a chain's N/C-terminus
B6 returned an EC50 (read off the curve) in assay [4] of 100 nM.

B7: yleaf (SEQ ID NO: 43) anchor ligand 4 (peptide)
peptide: [dY][dL][dE][dA][dF]
modifications: also: fluorescence polarization label not described
Turning to B7, the selectivity for E17K relative to WT (fold (E17K:WT)) in assay [5] amounted to 10. Also, the dissociation constant (Kd) in assay [6] is 2800 nM; in assay [7], 328 nM; in assay [8] it was 54 nM.

(Values after patent US20180072772A1 (CALIFORNIA INSTITUTE OF TECHNOLOGY, published 2018).)
